One experiment has as its target T1, Peptide 21 (human).
T1 peptide: Biotin-SELAQTRAEGQRQAQEYE
The experiment is described as follows: solid phase ELISA; biotinylated peptide on plate, antibody 2 ug/ml. For orientation: ELISA stands for enzyme-linked immunosorbent assay.

For another experiment, the target named is T2, Peptide 2 (human).
T2 construct: Synthetic peptide; lacks the C-terminal aspartic acid of Peptide 1
T2 peptide: {BSA}-RRLLEDGEDFNLGDAL
The experiment is described as follows: solid phase ELISA, BSA-conjugated peptide on plate. The procedure:
(1) BSA was added to the N-terminus of Peptide 1 and Peptide 2. (2) Each peptide was added to an ELISA plate at 5 μg/mL and 100 μL/well, and the plate was allowed to stand at 4° C. overnight to immobilize the peptide. Thereafter, the plate was washed three times with PBST, and Buffer I′ (10 mM NaH₂PO₄.2H₂O, 149.7 mM NaCl, 2.5 mM EDTA 2Na, 0.10% BSA, pH 7.0) was added thereto at 200 μL/well to prepare a plate stored at 4° C. overnight. […] (5) The plate was washed three times with PBST, and 15000-fold diluted Peroxidase-conjugated Affinipure F(ab)′2 Fragment Goat Anti-Mouse IgG (H+L) (Jackson) was added thereto at 100 μL/well, followed by shaking at room temperature for 1 hour. (6) The plate was washed three times with PBST, TMB Mix (1-step Ultra TMB-ELISA (Thermo Scientific):3% H₂O₂: Phosphate-Citrate buffer (Sigma)=15:0.15:14.85) was added thereto at 100 μL/well, and the mixture was reacted at room temperature for 10 minutes. Thereafter, 1 M H₂SO₄ was added thereto at 100 μL/well to stop the reaction. (7) Absorbance of the reaction solution at 450 nm was measured with a plate reader.

Experiment [1] deals with T3, fCK18 in apoptosis-induced HepG2 cell culture supernatant (human, UniProt P05783 239-397).
T3 construct: Natural CK18 fragment from the culture supernatant of apoptosis-induced HepG2 cells (band around 18 KDa); also called fCK18 in apoptosis-inducing cells
T3 sequence: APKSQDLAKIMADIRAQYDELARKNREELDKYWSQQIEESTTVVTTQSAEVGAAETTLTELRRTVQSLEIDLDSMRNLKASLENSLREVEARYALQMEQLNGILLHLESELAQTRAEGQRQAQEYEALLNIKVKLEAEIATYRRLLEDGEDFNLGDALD
The experiment is described as follows: plate ELISA with K18-624 magnetic microbeads, K18-328Fab-ALP detector. The procedure: (§1) Measurement samples of 3-fold dilution series (3-fold to 6561-fold dilution) were prepared from the apoptosis-induced HepG2 cell culture supernatant with a diluent (TBS, pH 7.5, 2% BSA), and fCK18 was measured. […] Based on the prepared calibration curve, fCK18 in the measurement sample was measured.
(§2) This solution was added to an ELISA plate at 25 μL/well, then each measurement sample was added at 25 μL/well, and the plate was incubated (1500 rpm, RT, 20 min). […] (3) After washing the plate, the HISCL (registered trademark) R4 reagent was added thereto at 50 μL/well, and then the mixture was stirred (1500 rpm, RT, 1 min). Thereafter, the HISCL (registered trademark) R5 reagent was added at 100 μL/well, and then the mixture was stirred (1000 rpm, RT, 10 sec). (4) Luminescence intensity was measured with a plate reader.

The target in experiment [2] is T3, fCK18 in apoptosis-induced HepG2 cell …. In words: plate ELISA with K18-624 magnetic microbeads, K18-328Fab-ALP detector; fCK18 0.28 ng/mL. The procedure: as §1, §2
Experiment [3] has the same target. The experiment is described as follows: plate ELISA with K18-624 magnetic microbeads, K18-328Fab-ALP detector; fCK18 60.73 ng/mL. The procedure: as §1, §2
Experiment [4] shares this target. In words: HISCL sandwich immunoassay; K18-624 magnetic microbeads capture, K18-328Fab-ALP detector; fCK18 60.73 ng/mL.

Where no end group is shown, it is not given here. The star is where a group is joined. Biotin = O=C1N[C@H]2[C@H](CS[C@H]2CCCCC(=O)*)N1

B1: K18-328 antibody (antibody, V domains shown)
VH: QVHLQQSAAELARPGASVKMSCKASGYTFTNYTIHWIKQRPGQGLEWIGYINPSSGYTDYNQNFKDKTTLTADKSSTTVYMQLSSLTSEDSAVYYCARQIPFAYWGQGTLVTVSA
VL: not shown
notes: Mouse monoclonal antibody from a hybridoma (immunogen full length rCK18)
Regarding B1, the Abs450 with Peptide 21 was determined as 0.01.

B2: K18-624 antibody (antibody, V domains shown)
VH: DVQLVESGGGLVQPGGSRKLSCAASGFTFSSFGMHWVRQAPEKGLEWVAYISSGSTTIYYADTVKGRFTISRDNPKNTLFLQMTSLRSEDTAMYYCARRGMITTGAWFAYWGQGTLVTVSA
VL: DILLTQSPAILSVSPGERVSFSCRASQRIGTSIHWYQQRTNGSPRLLIKYASESISGIPSRFSGSGSGTDFTLSINSVESEDIADYYCQQSYIWPFTFGSGTKLEIK
notes: Mouse monoclonal antibody from a hybridoma (Balb/C mouse immunised with Peptide 1-KLH)
Regarding B2, in the experiment with Peptide 2, the binding result is recorded as “no binding (tested: 5 to 10 ng/mL)”. Besides, in experiment [1], the “fCK18 concentration detectable (S/N ratio of 2 or more)” value was at least 0.09 ng/mL. In addition, the “fold detection sensitivity compared with Comparative Example 1 (M30 antibody)” value in experiment [1] was around 24 fold. Further, the S/N ratio in experiment [2] was determined as 5.9; in experiment [3], 1850; in experiment [4], 683.

These data come from patent US20220267427A1 (SYSMEX, published 2022).
